Data on 5 variants can be found in IntAct's records for PubMed 38141762.

B1: Mitochondrial association factor 1 form b1 (Toxoplasma gondii), A0A140H546 (parent)
chain: MWRIWRCRLSFLFATGCLLGALTAGLGSQMSDSVGRNVQAPAGVADASQEAGDVVEERTERTEEQAFALGPPRRHSSESLFPRNASVTARRRRNRRIALIATAVGVAVILAAVYVLRRRRAQRPQDPEPPAPRSVEDPEVLPEEDEASSSLPPPPPPSPPPPPPVEDPLSPESQTVDLSCLSGTTVRFFGPSHHFGGFTPLYDPAPDKRVATVDAGANALFIGGGGLNGQFAKTLLEEAEKHGIRLTPEELSQHSQRIQQSLLRRAVKSPGKLVELDTGVASPVFARSFGFVPVVPGLMWEESEVGPNVGVTFVHILKPEVTPYGNLNNNVMMYTVAPSGAAPDKTYSLAYKTTIAGVIGAAAAYNDTPAGQQYPVQGLRLPLLGGGIFRRNRSLESIGRANAEGTSLAITRYGPNFELQYMYDPSNAALHGLQEAESTYLASMLD

In one test the parent is B1. The note with it: with RALGAPA1, Q6GYQ0-1.
Chain of RALGAPA1, Q6GYQ0-1 (Q6GYQ0 whole entry): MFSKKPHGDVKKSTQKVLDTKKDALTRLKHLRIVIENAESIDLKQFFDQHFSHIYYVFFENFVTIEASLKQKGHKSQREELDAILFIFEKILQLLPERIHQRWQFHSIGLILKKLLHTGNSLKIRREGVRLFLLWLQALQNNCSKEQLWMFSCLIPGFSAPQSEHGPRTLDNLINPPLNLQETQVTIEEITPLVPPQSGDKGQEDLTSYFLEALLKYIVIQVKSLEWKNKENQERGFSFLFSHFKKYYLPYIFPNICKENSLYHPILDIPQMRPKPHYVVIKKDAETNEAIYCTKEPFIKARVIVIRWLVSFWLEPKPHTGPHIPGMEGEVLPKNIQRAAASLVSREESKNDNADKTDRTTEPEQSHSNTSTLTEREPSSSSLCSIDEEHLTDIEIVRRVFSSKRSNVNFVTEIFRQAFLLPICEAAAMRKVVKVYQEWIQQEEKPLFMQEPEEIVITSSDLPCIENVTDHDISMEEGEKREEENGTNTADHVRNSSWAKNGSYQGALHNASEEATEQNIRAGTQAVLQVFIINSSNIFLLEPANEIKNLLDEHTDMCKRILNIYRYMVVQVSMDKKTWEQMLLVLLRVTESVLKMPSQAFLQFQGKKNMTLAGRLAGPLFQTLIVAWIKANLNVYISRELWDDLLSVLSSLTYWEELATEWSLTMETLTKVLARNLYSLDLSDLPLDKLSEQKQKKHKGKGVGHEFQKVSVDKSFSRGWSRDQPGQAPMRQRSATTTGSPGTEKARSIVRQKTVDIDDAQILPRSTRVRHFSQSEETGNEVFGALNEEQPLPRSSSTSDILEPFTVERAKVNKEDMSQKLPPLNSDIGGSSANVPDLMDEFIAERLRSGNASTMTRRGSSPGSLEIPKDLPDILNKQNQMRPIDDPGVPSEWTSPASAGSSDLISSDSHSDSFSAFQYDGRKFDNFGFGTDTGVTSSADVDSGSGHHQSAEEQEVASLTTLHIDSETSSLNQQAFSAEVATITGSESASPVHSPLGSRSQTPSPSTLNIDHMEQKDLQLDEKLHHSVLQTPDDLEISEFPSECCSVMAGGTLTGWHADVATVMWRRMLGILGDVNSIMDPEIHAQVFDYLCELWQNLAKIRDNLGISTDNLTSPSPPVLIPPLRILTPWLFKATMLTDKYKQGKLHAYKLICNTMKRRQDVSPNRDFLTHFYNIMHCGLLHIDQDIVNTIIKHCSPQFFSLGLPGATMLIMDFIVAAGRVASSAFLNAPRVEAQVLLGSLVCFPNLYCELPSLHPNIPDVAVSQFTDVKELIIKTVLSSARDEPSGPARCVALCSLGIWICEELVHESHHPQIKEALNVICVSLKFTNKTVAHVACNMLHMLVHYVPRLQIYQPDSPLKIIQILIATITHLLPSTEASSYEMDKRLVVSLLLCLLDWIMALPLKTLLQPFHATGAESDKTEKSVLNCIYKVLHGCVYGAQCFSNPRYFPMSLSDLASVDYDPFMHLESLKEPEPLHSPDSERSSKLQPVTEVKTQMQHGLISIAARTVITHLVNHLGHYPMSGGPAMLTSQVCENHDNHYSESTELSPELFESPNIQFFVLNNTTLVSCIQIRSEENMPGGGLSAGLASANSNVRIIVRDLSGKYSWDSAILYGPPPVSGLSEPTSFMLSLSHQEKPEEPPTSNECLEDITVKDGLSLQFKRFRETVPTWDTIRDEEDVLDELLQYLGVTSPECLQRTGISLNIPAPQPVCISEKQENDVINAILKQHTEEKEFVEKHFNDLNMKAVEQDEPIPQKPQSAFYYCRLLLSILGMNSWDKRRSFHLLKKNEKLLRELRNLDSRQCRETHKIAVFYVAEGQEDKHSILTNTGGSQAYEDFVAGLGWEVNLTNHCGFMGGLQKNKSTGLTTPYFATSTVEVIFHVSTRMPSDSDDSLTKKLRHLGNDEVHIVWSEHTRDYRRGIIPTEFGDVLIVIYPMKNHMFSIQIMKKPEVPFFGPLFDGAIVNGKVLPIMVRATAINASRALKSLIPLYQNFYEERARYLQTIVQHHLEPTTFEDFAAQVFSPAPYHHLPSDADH
As to S438R;T439K;L441K, the “effect of a mutation on the interaction” value is given as “decreasing interaction strength”.

With S438R;L441K, the “effect of a mutation on the interaction” value is recorded as “decreasing interaction strength”.

The variants in a further test derive from B1. The note with it: with RALGAPA1, Q6GYQ0-1. The source holds these as a separate data set.
Turning to S438R;T439K;L441K, the “effect of a mutation on the interaction” value is recorded as “with no effect”.

Turning to A281F, the “effect of a mutation on the interaction” value is listed as “disrupting interaction strength”.

Regarding V280R, the “effect of a mutation on the interaction” value is reported as “disrupting interaction strength”.

Turning to S438R;L441K, the “effect of a mutation on the interaction” value is reported as “with no effect”.

Regarding P283R, the “effect of a mutation on the interaction” value is listed as “disrupting interaction strength”.
